One assay deals with 3×MBT domain of L3MBTL1. Kind of assay: Triple SILAC pull-down, 3xMBT/3xMBTD355N ratio (cytoplasmic, nuclear and chromatin fractions of 293T cells).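 As to all read-outs here: proteins quantified with MaxQuant, requiring at least two unique peptides and quantification in both label directions, normalized to the mean of proteins from a digested loading control.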 It is filed as binding, human. As to conditions: SILAC ratio, pull-down 3xMBT vs 3xMBTD355N; for 3xMBT/D355N UNC Heavy: experiment with UNC0638 in heavy SILAC media; for 3xMBT/D355N UNC Light: experiment with UNC0638 in light SILAC media.

The next assay concerns the target T1, G9a and GLP (Homo sapiens, UniProt Q96KQ7+Q9H9B1).
T1 sequence (Q96KQ7 2-1210 limits assumed): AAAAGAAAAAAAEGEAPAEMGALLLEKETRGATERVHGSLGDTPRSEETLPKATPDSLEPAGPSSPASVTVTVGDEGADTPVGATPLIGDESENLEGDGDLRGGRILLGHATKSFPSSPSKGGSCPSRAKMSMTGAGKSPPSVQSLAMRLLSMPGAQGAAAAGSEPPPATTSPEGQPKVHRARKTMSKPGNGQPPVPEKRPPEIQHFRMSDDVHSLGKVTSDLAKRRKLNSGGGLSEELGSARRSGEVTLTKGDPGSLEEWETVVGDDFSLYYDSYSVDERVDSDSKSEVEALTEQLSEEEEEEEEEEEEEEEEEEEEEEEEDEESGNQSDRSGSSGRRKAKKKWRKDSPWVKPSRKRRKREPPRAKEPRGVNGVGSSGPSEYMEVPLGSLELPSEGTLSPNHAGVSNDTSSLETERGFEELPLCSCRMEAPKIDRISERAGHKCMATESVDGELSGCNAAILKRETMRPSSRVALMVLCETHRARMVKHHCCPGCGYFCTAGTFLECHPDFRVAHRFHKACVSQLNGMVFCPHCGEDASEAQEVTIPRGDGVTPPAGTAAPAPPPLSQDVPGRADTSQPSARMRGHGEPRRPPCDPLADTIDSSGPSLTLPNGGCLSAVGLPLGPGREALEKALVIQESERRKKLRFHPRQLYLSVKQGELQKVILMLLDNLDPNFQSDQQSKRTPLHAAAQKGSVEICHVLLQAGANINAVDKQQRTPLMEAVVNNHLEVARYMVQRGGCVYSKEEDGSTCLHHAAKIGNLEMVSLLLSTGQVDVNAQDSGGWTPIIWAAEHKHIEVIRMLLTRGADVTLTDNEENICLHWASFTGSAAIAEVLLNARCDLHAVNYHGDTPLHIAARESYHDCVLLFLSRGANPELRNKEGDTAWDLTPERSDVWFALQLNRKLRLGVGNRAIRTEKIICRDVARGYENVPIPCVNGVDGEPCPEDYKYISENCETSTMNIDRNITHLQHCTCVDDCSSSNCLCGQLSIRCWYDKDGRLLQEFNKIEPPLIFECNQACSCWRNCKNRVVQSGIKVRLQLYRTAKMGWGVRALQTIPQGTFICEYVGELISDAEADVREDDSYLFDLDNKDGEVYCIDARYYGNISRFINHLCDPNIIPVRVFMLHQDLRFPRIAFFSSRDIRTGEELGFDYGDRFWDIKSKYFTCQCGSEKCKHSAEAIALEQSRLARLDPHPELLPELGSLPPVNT
T1 sequence (Q9H9B1 2-1298 limits assumed): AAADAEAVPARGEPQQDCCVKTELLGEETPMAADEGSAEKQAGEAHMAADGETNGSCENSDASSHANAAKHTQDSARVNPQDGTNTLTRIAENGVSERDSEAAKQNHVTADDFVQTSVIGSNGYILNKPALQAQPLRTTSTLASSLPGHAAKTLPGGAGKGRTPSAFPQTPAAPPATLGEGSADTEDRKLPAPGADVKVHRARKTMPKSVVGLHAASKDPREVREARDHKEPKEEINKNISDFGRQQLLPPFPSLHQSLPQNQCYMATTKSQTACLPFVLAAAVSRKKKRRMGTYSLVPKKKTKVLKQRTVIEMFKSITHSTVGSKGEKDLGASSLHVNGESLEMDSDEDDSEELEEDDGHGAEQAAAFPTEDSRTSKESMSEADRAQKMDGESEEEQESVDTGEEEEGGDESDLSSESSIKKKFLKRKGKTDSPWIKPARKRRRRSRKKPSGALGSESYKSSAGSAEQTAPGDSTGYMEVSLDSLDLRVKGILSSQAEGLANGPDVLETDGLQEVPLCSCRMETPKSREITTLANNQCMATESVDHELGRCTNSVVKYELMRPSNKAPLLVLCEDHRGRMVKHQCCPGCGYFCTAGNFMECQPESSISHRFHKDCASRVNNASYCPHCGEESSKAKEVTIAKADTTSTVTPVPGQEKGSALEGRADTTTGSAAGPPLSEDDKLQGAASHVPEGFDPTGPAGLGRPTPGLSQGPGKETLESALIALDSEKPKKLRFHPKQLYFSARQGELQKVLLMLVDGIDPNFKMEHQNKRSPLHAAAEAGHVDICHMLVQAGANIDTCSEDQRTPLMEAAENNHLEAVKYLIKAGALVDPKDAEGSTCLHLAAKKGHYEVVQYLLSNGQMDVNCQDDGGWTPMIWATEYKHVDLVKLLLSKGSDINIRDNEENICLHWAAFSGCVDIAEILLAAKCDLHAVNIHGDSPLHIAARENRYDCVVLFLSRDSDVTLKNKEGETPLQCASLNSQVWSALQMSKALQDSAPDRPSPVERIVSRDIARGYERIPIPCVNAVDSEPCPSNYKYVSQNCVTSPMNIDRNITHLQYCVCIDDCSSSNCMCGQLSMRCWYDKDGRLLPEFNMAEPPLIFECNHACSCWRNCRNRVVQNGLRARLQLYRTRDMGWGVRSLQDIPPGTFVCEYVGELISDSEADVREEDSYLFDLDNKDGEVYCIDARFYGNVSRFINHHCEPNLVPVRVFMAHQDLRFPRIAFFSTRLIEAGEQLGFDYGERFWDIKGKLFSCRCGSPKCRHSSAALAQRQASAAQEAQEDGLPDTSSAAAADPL
Put plainly: Triple SILAC pull-down after UNC0638 treatment of 293T cells, DMSO/UNC0638 ratio of protein captured by 3×MBT.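 As to all read-outs here: mass spectrometry (Q-Exactive) SILAC quantitation, DMSO/UNC0638 ratio computed after subtracting 3×MBTD355N mutant pull-down background, only proteins with at least twofold 3×MBT over mutant signal considered.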 It is filed as cell-based. On the set-up: endogenous in cells; host or cells: HEK 293T. The conditions noted are these: for Relative to UNC0638 UNC Heavy / Relative to UNC0638 UNC Light: SILAC ratio DMSO/UNC0638 of protein pulled down with 3xMBT; for Relative to UNC0638 UNC Heavy: UNC0638 in heavy SILAC media; for Relative to UNC0638 UNC Light: UNC0638 in light SILAC media; for Relative to UNC0638 Average: average of UNC Light and UNC Heavy experiments.

We go through 4 molecules from patent US20140274782A1, “AFFINITY REAGENTS AND METHODS FOR DETECTION, PURIFICATION, AND PROTEOMIC ANALYSIS OF METHYLATED PROTEINS” (The Board of Trustees of the Leland Stanford Junior …, priority 2013, published 2014).

B1: RCC1 (protein, UniProt P18754 2-421, looked up)
Regulator of chromosome …: SPKRIAKRRSPPADAIPKSKKVKVSHRSHSTEPGLVLTLGQGDVGQLGLGENVMERKKPALVSIPEDVVQAEAGGMHTVCLSKSGQVYSFGCNDEGALGRDTSVEGSEMVPGKVELQEKVVQVSAGDSHTAALTDDGRVFLWGSFRDNNGVIGLLEPMKKSMVPVQVQLDVPVVKVASGNDHLVMLTADGDLYTLGCGEQGQLGRVPELFANRGGRQGLERLLVPKCVMLKSRGSRGHVRFQDAFCGAYFTFAISHEGHVYGFGLSNYHQLGTPGTESCFIPQNLTSFKNSTKSWVGFSGGQHHTVCMDSEGKAYSLGRAEYGRLGLGEGAEEKSIPTLISRLPAVSSVACGASVGYAVTKDGRVFAWGMGTNYQLGTGQDEDAWSPVEMMGKQLENRVVLSVSSGGQHTVLLVKDKEQS
Take B1: in the assay with 3×MBT domain of L3MBTL1, the “3xMBT/D355N UNC Heavy” value was 2.15 log base 2 and the “3xMBT/D355N UNC Light” value worked out at 2.25 log base 2. In the assay with G9a and GLP, the “Relative to UNC0638 UNC Heavy” value worked out at 0.18 log base 2, the “Relative to UNC0638 UNC Light” value came out at 0.29 log base 2 and the “Relative to UNC0638 Average” value was 0.24 log base 2.

B2: SRP9 (protein, UniProt P49458 2-86, looked up)
Signal recognition particle 9 …: PQYQTWEEFSRAAEKLYLADPMKARVVLKYRHSDGNLCVKVTDDLVCLVYKTDQAQDVKKIEKFHSQLMRLMVAKEARNVTMETE
Regarding B2, in the assay on 3×MBT domain of L3MBTL1, the “3xMBT/D355N UNC Heavy” value came out at 1.88 log base 2 and the “3xMBT/D355N UNC Light” value came to 1.52 log base 2. For the same molecule, in the assay with G9a and GLP, the “Relative to UNC0638 UNC Heavy” value came out at 0.46 log base 2, the “Relative to UNC0638 UNC Light” value is 0.01 log base 2 and the “Relative to UNC0638 Average” value worked out at 0.23 log base 2.

B3: PPP1CB (protein, UniProt P62140 2-327, looked up)
Serine/threonine-protein …: ADGELNVDSLITRLLEVRGCRPGKIVQMTEAEVRGLCIKSREIFLSQPILLELEAPLKICGDIHGQYTDLLRLFEYGGFPPEANYLFLGDYVDRGKQSLETICLLLAYKIKYPENFFLLRGNHECASINRIYGFYDECKRRFNIKLWKTFTDCFNCLPIAAIVDEKIFCCHGGLSPDLQSMEQIRRIMRPTDVPDTGLLCDLLWSDPDKDVQGWGENDRGVSFTFGADVVSKFLNRHDLDLICRAHQVVEDGYEFFAKRQLVTLFSAPNYCGEFDNAGGMMSVDETLMCSFQILKPSEKKAKYQYGGLNSGRPVTPPRTANPPKKR
Turning to B3, in the assay with 3×MBT domain of L3MBTL1, the “3xMBT/D355N UNC Heavy” value was found to be 2.35 log base 2 and the “3xMBT/D355N UNC Light” value was 2.55 log base 2. In the assay with G9a and GLP, the “Relative to UNC0638 UNC Heavy” value turned out to be 0.28 log base 2, the “Relative to UNC0638 UNC Light” value amounted to 0.18 log base 2 and the “Relative to UNC0638 Average” value was 0.23 log base 2.

B4: CNN3 (protein, UniProt Q15417 1-329, looked up)
Calponin-3: MTHFNKGPSYGLSAEVKNKIASKYDHQAEEDLRNWIEEVTGMSIGPNFQLGLKDGIILCELINKLQPGSVKKVNESSLNWPQLENIGNFIKAIQAYGMKPHDIFEANDLFENGNMTQVQTTLVALAGLAKTKGFHTTIDIGVKYAEKQTRRFDEGKLKAGQSVIGLQMGTNKCASQAGMTAYGTRRHLYDPKMQTDKPFDQTTISLQMGTNKGASQAGMLAPGTRRDIYDQKLTLQPVDNSTISLQMGTNKVASQKGMSVYGLGRQVYDPKYCAAPTEPVIHNGSQGTGTNGSEISDSDYQAEYPDEYHGEYQDDYPRDYQYSDQGIDY
Consider B4, for which, in the assay on 3×MBT domain of L3MBTL1, the “3xMBT/D355N UNC Heavy” value stood at 2.36 log base 2 and the “3xMBT/D355N UNC Light” value is recorded as 2.35 log base 2. Further, in the assay with G9a and GLP, the “Relative to UNC0638 UNC Heavy” value is 0.61 log base 2, the “Relative to UNC0638 UNC Light” value is −0.15 log base 2 and the “Relative to UNC0638 Average” value was 0.23 log base 2.
